Experimental findings from the supplement of paper PMC7877785 are described below.

A short description of the data set: self-splicing fitness, log relative to wild type (ln ratio); higher = more splicing; Tetrahymena group I intron in knt gene, E. coli kanamycin selection, DiMSum; sequences stand for … in CUCUCU…GGAGGGAAAAGUUAUCAGGCAUGCACCUGGUAGCUAGUCUUUAAACCAAUAGAUUGCAUCGGUUUAAAAGGCAAGACCGUCAAAUUGCGGGAAAGGGGUCAACAGCCGUUCAGUACCAAGUCUCAGGGGAAACUUUGAGAUGGCCUUGCAAAGGGUAUGGUAAUAAGCUGACGGACAUGGUCCUAACCACGCAGCCAAGUCCUAAGUCAACAGAUCUUCUGUUGAUAUGGAUGCAGUUCACAGACUAAAUGUCGGUCGGGGAAGAUGUAUUCUUCUCAUAAGAUAUAGUCGGACCUCUCCUUAAUGGGAGCUAGCGGAUGAAGUGAUGCAACACUGGAGCCGCUGGGAACUAAUUUGUAUGCGAAAGUAUAUUGAUUAGUUUUGGAGUACUCGUGGUCG
The method in brief:
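DiMSum derived fitness as the error-weighted combination of fold changes across replicates, kanamycin versus no kanamycin, normalised to wild type. E. coli BL21(DE3) held the library, which randomised all eight P1ex-region intron nucleotides within the knt kanamycin-resistance gene on pET-22b(+). Six replicate transformations grew overnight at 37°C or 30°C on LB agar with or without 25 μg/mL kanamycin, also containing 100 μg/mL carbenicillin, 50 μM IPTG and 0.2% rhamnose, and pooled colonies were amplicon-sequenced on an Illumina HiSeq 2500.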

± gives the uncertainty stated by the source.

As to GAUGAGCAAUAUUACGCUAG, the “self-splicing fitness (ln)” value (37 °C) is -1.33 ± 0.39.
For the sequence GAUGAGCAAUAUUACGGGCG, the “self-splicing fitness (ln)” value runs as follows: (30 °C) -3.36 ± 0.39; (37 °C) -1.45 ± 0.26.
The corresponding values for GAUGAGCAAUAUUACGGGGC are -3.24 ± 0.33 and -2.28 ± 0.23.
GAUGAGCAAUAUUACGUAAA: the “self-splicing fitness (ln)” value was -3.81 ± 0.17 (30 °C) and -1.37 ± 0.15 (37 °C).
For GAUGAGCAAUAUUACGUACC, the “self-splicing fitness (ln)” value is -0.53 ± 0.35 (30 °C) and -1.77 ± 0.44 (37 °C).
The corresponding values for GAUGAGCAAUAUUACGUCAA are -3.32 ± 0.28 and -3.44 ± 0.37.
As to GAUGAGCAAUAUUACGUCAC, the “self-splicing fitness (ln)” value reads like this: (30 °C) -3.62 ± 0.4; (37 °C) -2.47 ± 0.26.
Regarding GAUGAGCAAUAUUACGUCGG, the “self-splicing fitness (ln)” value (37 °C) is -2.87 ± 0.34.
For the sequence GAUGAGCAAUAUUACGUGGA, the “self-splicing fitness (ln)” value was -2.47 ± 0.21 (30 °C) and -2.5 ± 0.22 (37 °C).
GAUGAGCAAUAUUACGUUAA: under “30 °C”, the “self-splicing fitness (ln)” value is -2.39 ± 0.32.
Regarding GAUUAGCAAUAUUACGAGAC, the “self-splicing fitness (ln)” value is -1.51 ± 0.3 (30 °C) and -1.1 ± 0.22 (37 °C).
The corresponding values for GAUUAGCAAUAUUACGAGCU are -1.23 ± 0.088 and -0.791 ± 0.16.
On the same counts, the results for GAUUAGCAAUAUUACGAGUC are -3.17 ± 0.27 and -2.58 ± 0.33.
On the same counts, the results for GAUUAGCAAUAUUACGCAUU are -2.53 ± 0.14 and -2.25 ± 0.17.
As to GAUUAGCAAUAUUACGCCUA, the “self-splicing fitness (ln)” value reads like this: (30 °C) -0.405 ± 0.092; (37 °C) 0.169 ± 0.095.
The corresponding values for GAUUAGCAAUAUUACGCGAU are -3.61 ± 0.37 and -1.27 ± 0.44.
The corresponding values for GAUUAGCAAUAUUACGGCGA are -1.12 ± 0.11 and -0.219 ± 0.11.
Take GAUUAGCAAUAUUACGGCUC: the “self-splicing fitness (ln)” value (30 °C) was found to be 0.285 ± 0.096 and the “self-splicing fitness (ln)” value (37 °C) is 0.441 ± 0.12.
The corresponding values for GAUUAGCAAUAUUACGGGCG are -1.63 ± 0.15 and -1.33 ± 0.17.
On the same counts, the results for GAUUAGCAAUAUUACGGUAC are -2.14 ± 0.37 and -0.994 ± 0.22.
On the same counts, the results for GAUUAGCAAUAUUACGGUGC are -1.8 ± 0.34 and -1.4 ± 0.32.
Consider GAUUAGCAAUAUUACGGUUC, for which the “self-splicing fitness (ln)” value (30 °C) was -3.38 ± 0.18 and the “self-splicing fitness (ln)” value (37 °C) was -1.96 ± 0.23.
On to GAUUAGCAAUAUUACGGUUG, for which the “self-splicing fitness (ln)” value runs as follows: (30 °C) -1.43 ± 0.12; (37 °C) -1.02 ± 0.15.
The corresponding values for GAUUAGCAAUAUUACGUCCG are -1.73 ± 0.25 and -2.61 ± 0.41.
On the same counts, the results for GAUUAGCAAUAUUACGUCUA are -1.14 ± 0.095 and -0.229 ± 0.085.
GAUUAGCAAUAUUACGUCUC: the “self-splicing fitness (ln)” value runs as follows: (30 °C) -1.24 ± 0.33; (37 °C) -0.965 ± 0.32.
Regarding GAUUAGCAAUAUUACGUGGU, the “self-splicing fitness (ln)” value is -2.61 ± 0.18 (30 °C) and -2.47 ± 0.2 (37 °C).
The corresponding values for GCAAAGCAAUAUUACGAAAG are -2.86 ± 0.19 and -1.94 ± 0.21.
As for GCAAAGCAAUAUUACGAAGA, the “self-splicing fitness (ln)” value is, setting by setting: (30 °C) -1.88 ± 0.18; (37 °C) -2.45 ± 0.23.
GCAAAGCAAUAUUACGAGCA: the “self-splicing fitness (ln)” value was -2.04 ± 0.095 (30 °C) and -0.394 ± 0.08 (37 °C).
With GCAAAGCAAUAUUACGAUAC, the “self-splicing fitness (ln)” value by setting is: (30 °C) -1.69 ± 0.1; (37 °C) -0.587 ± 0.14.
Turning to GCAAAGCAAUAUUACGAUCA, the “self-splicing fitness (ln)” value is, setting by setting: (30 °C) -1.4 ± 0.12; (37 °C) -0.882 ± 0.11.
The corresponding values for GCAAAGCAAUAUUACGCACU are -0.557 ± 0.078 and 0.031 ± 0.092.
On the same counts, the results for GCAAAGCAAUAUUACGCCCC are -0.913 ± 0.19 and -0.135 ± 0.31.
The corresponding values for GCAAAGCAAUAUUACGCUAC are -2.2 ± 0.16 and -2.09 ± 0.26.
As for GCAAAGCAAUAUUACGGAAU, the “self-splicing fitness (ln)” value reads like this: (30 °C) -2.6 ± 0.1; (37 °C) -0.938 ± 0.11.
Regarding GCAAAGCAAUAUUACGGAGA, the “self-splicing fitness (ln)” value (30 °C) is -2.82 ± 0.45.
Take GCAAAGCAAUAUUACGGGAA: the “self-splicing fitness (ln)” value reads like this: (30 °C) -2.43 ± 0.1; (37 °C) -0.474 ± 0.081.
As to GCAAAGCAAUAUUACGGGUA, the “self-splicing fitness (ln)” value (30 °C) is -1.55 ± 0.11 and the “self-splicing fitness (ln)” value (37 °C) is -0.7 ± 0.097.
